Results from paper PMC6456224.

Assays:
[1] = test system: HMG-box Pf (HMG-box domain of HMGB1) (Plasmodium falciparum); experiment: MST; details: MST: 50 nM aptamer with probeFAM (4:1), PBS, room temperature, protein 0.1 nM-2 uM, stopped-flow: SELEX buffer (100 mM NaCl, 1.5 mM KCl, 5 mM MgCl2, 6 mM …)
[2] = molecular target: HMG-box Hs (HMG-box domain of human HMGB1) (Homo sapiens) (UniProt P09429); experiment: MST; details: MST: 50 nM aptamer with probeFAM (4:1), PBS, room temperature, protein 0.1 nM-2 uM; stopped-flow: SELEX buffer (100 mM NaCl, 1.5 mM KCl, 5 mM MgCl2, 6 mM …)
Chain of UniProt P09429 (P09429 whole entry, the tested form may be a part): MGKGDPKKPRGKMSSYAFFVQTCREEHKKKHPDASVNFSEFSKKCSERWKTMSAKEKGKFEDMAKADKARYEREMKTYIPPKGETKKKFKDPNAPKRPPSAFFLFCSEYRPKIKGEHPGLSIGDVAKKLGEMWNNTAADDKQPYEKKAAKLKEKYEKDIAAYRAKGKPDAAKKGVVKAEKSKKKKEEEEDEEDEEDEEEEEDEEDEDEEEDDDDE

| Sequence | Kd [1] | fold lower affinity than HMG-box Pf (fold lower affinity than HMG-box Pf) [2] | Kd ([1]; separate S4 experiment) |
| --- | --- | --- | --- |
| TAGGGAAGAGAAGGACATATGATACCGACTACGTCAACTTGGGTCTGCTCGGGATTGCGGATGTTGACTAGTACATGACCACTTGA [PfE2] | 0.055 µM |  |  |
| TAGGGAAGAGAAGGACATATGATAGCCGTGGATTGCAAAGGGCTGCTGTGGCTTAGTTGAATGTTGACTAGTACATGACCACTTGA [PfR5] | 0.56 µM |  |  |
| TAGGGAAGAGAAGGACATATGATAGTTTACACCAAGGACTGCTTAGGATTGCGTTAGGGTATTTTGACTAGTACATGACCACTTGA [PfE3] | 0.815 µM | 10 | 0.74 µM |
| TAGGGAAGAGAAGGACATATGATCGCGTGGGTTTGGCTCCGGGCCTGGCGGATGCACGTATAGTTGACTAGTACATGACCACTTGA [PfR6 (PfR6FAM)] | 0.065 µM |  | 0.064 µM |
| TAGGGAAGAGAAGGACATATGATAGATGCAAAGGACTGCTCAGGCTTGCGATGGCAGCTTCATTTGACTAGTACATGACCACTTGA [PfR2] | 0.778 µM |  |  |
| TAGGGAAGAGAAGGACATATGATGCCGACTACGTCAACCTGGGTCTGCTCGGGATTGCGGATGTTGACTAGTACATGACCACTTGA [PfE1] | 0.081 µM |  |  |
| TAGGGAAGAGAAGGACATATGATCACTAGGTCTGCTTAGGATTGCGTAAGTGAAAGTCATTTATTGACTAGTACATGACCACTTGA [PfR3] | 1.93 µM |  |  |
| TAGGGAAGAGAAGGACATATGATACCGACTACGTCAACCTGGGTCTGCTCGGGATTGCGGATGTTGACTAGTACATGACCACTTGA [PfR4] | 0.041 µM |  |  |
| TAGGGAAGAGAAGGACATATGATGAGAAGGACTGCTTAGGCTTGCGATGTGAAATCTGTAATCTTGACTAGTACATGACCACTTGA [PfR1] | 0.175 µM |  |  |
